The target in this experiment is Rabbit skeletal muscle actin (rabbit, UniProt P68135 1-377). In words: co-sedimentation.

These results are taken from PMC2134809 (The Journal of Cell Biology, 1997).

B1: Arp2/3 complex (complex)
chain 1: not shown
chain 2: not shown
chain 3: MSANIENFKDSAKLTCITCHAFNRDRTLIAICPNNNEVHIYQKQGAEWVKNAVLVEHDQAVTGIDWGHKENRIVTCSQDRNAYVWSLGADGKWKPTLVLLRITRAATHVKWSPNEEKFAVATGAKCVSVCYFEEANDWWVSKHIKLHKSTVLNVAWHPNNIFLATAASDFKARIFSAFIKGVDKRPENTPFGDKLPFGEMLAEYSCGGWVHGVSWSPSGEWLSFVSHDSAISFVNISTGREAVPQRLSLSGLPYRVLAFLNPTDIIAAGYDCNPALFRLSGQTWAFVKNVDESSAAARAAPGAAQSAMNMWQKKADLGTTSNETQLETKHQNAISGLTALAPNQFSTTAVDGKLIIWTVRA
chain 4: MILLETGSRILEEVIRQRVQSDKREAVDITLADFDGVQYHIATNATQRNLVTVSISWPCISQMKQFGTDAKVQSFYGPLVTSAETGYDYTLQFDLDNLADKDSLPGKIALFKRTVVAAPLEAVFDGKPGLPPVITINYRTNEAVYLKREGNNVAVIFSINFKDKDDIVIGKVFLQELEAARKTINNAPAVTFSQRERPLELKSVQNVYEGEDQGFVTFLLFGPHTHESRRGKTIDTIHLFRNYLHYHIKCSKAFLHTRMRLRVEELLQVLNRAKIKNANKEMKTMSGRTFKRA
chain 5: MCGMGVLPIKTKYKGPAPRYTGPADQPDIIDEAISFFKANVLFRNYEVKGPADRVLIYLTLYISQAINQMVNQSKGGAQKNLFNLAIQNFAVPGDKNFALAGFVSNPANRAEADQIRQYLTQLRQETGDRLIEAVYAFGENEPSKWWMCFSKRKFLNKNL
chain 6: METPEKPERSDAEFQQSLDARQREVNNALNTGNPGRALSAALQDPPLGCKNQQIRAVVNVLTSVKDADMQKNIDALSPTDLDTLMKYIYRGLEDGENSTSLLKWHEAVTKKGGLGCIVRALAERKAL
Consider B1, for which the Kd was found to be 2300 ± 300 nM and the “stoichiometry N” value is 1 actin monomer per Arp2/3-binding site.
